T1: CD19 (human, UniProt P15391 20-291)
T1 chain: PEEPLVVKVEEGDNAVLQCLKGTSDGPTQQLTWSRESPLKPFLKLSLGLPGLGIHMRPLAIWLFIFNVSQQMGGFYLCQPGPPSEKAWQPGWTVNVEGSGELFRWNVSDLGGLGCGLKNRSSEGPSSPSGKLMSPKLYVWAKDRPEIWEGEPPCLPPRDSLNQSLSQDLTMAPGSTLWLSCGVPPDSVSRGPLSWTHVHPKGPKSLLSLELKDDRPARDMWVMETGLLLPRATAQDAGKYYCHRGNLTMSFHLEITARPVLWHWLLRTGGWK


How the values were obtained:
[1] = target: T1, CD19; assay: binding kinetics
[2] = target: T1, CD19; assay: Biacore SPR
[3] = target: CD22 (human, UniProt P20273 20-687); assay: Biacore SPR

Row | Kd [3] [µM] | Binder | also measured
1 |  | CD19ALAb (antibody) QVQLQQSGAELVRPGSSVKISCKASGYAFSSYWMNWVKQRPGQGLEWIGQIWPGDGDTNYNGKFKGKATLTADESSSTAYMQLSSLASEDSAVYFCARRETTTVGRYYYAMDYWGQGTTVTVSSDIQLTQSPASLAVSLGQRATISCKASQSVDYDGDSYLNWYQQIPGQPPKLLIYDASNLVSGIPPRFSGSGSGTDFTLNIHPVEKVDAATYHCQQSTEDPWTFGGGTKLEIK | Kd [1]: 0.0011 µM
2 |  | Murine CD19ALAb scFv (scFv) scFv: QVQLQQSGAELVRPGSSVKISCKASGYAFSSYWMNWVKQRPGQGLEWIGQIWPGDGDTNYNGKFKGKATLTADESSSTAYMQLSSLASEDSAVYFCARRETTTVGRYYYAMDYWGQGTTVTVSSDIQLTQSPASLAVSLGQRATISCKASQSVDYDGDSYLNWYQQIPGQPPKLLIYDASNLVSGIPPRFSGSGSGTDFTLNIHPVEKVDAATYHCQQSTEDPWTFGGGTKLEIK | Kd [2]: 0.00185 µM
3 | 0.038 | Murine CD22ALAb scFv (scFv) scFv: QVQLQQPGAELVRPGASVKLSCKASGYTFTNYWINWVKQRPGQGLEWIGNIYPSDSFTNYNQKFKDKATLTVDKSSSTAYMQLSSPTSEDSAVYYCTRDTQERSWYFDVWGAGTTVTVSSDVVMTQTPLSLPVSLGDQASISCRSSQSLVHSNGNTYLHWYLQKPGQSPKLLIYKVSNRFSGVPDRFSGSGSGTDFTLKISRVEAEDLGLYFCSQSTHVPWTFGGGTKLEIK | 
4 | 0.032 | Humanised CD22ALAb scFv (scFv) scFv: EVQLVESGAEVKKPGSSVKVSCKASGYTFTNYWINWVRQAPGQGLEWIGNIYPSDSFTNYNQKFKDRATLTVDKSTSTAYLELRNLRSDDTAVYYCTRDTQERSWYFDVWGQGTLVTVSSDIVMTQSPATLSVSPGERATLSCRSSQSLVHSNGNTYLHWYQQKPGQAPRLLIYKVSNRFSGVPARFSGSGSGVEFTLTISSLQSEDFAVYYCSQSTHVPWTFGQGTRLEIK | 
